As usually defined, the Kd is the constant that tells how readily two partners part at equilibrium. High values mean a looser complex, low ones a tighter complex.

Numbered stars: 1 amine (or outer) side, 2 acyl side, 3 side chain; on linkers, the order of the positions; unused ones are H or OH. Bridge positions count the residues as written; N and C are the ends. Square brackets hold non-standard residues; d marks the D form. Ends that are not written are not given here. * marks the point of attachment. DOTA = O=C(O)CN1CCN(CC(=O)O)CCN(CC(=O)*)CCN(CC(=O)O)CC1; Phe(4-Br) = N[C@@H](Cc1ccc(Br)cc1)C(=O)O; 1Nal = N[C@@H](Cc1cccc2ccccc12)C(=O)O; TBMB = c1c(C[*:1])cc(C[*:3])cc1C[*:2]; Tle = CC(C)(C)[C@H](N)C(=O)O; βAla = NCCC(=O)O; Sar = CNCC(=O)O

Assay [1] deals with T1, human MT1-MMP hemopexin domain (hemopexin-like repeats, residues Cys319-Gly511), N-terminally His6-tagged … (human, UniProt P50281 319-511).
T1 construct: range 319-511; Secreted from HEK293 cells; also called hemopexin protein; MT1-MMP (=MMP-14); not shown: N-terminal His6 tag from pEXPR-IBA42 vector
Put plainly: FP competition vs MT1-MMP hemopexin domain (tracer not given). On the procedure:
(§1) Subsequently, the non-fluorescent competitor bicyclic peptide (usually just the bicycle core sequence) is titrated, such that it displaces the fluorescent tracer from the target protein. The displacement of the tracer is measured and associated with a drop in fluorescence polarisation. The drop in fluorescence polarisation is proportional to the fraction of target protein bound with the non-fluorescent titrant, and thus is a measure of the affinity of titrant to target protein.

In assay [2] the target is T2, dog MT1-MMP hemopexin domain (dog).
T2 construct: domain: hemopexin domain
Briefly: FP competition, dog hemopexin domain. On the procedure: as §1

Assay [3] concerns the target T1, human MT1-MMP hemopexin domain …. Put plainly: Kd, method not named in table (FP competition by the methods).

B1: 17-69-07-N252, Ac-(17-69-07) D-Ala1 1Nal4 D-Ala5 4BrPhe9 tBuGly11 (peptide)
chain: Ac-C[dA]NE[1Nal][dA]CEDF[Phe(4-Br)]D[Tle]C-NH2
modifications: linker 1-7-14 via TBMB
SMILES: CC(=O)N[C@H]1CSCc2cc3cc(c2)CSC[C@H](NC(=O)[C@@H](C)NC(=O)[C@H](Cc2cccc4ccccc24)NC(=O)[C@H](CCC(=O)O)NC(=O)[C@H](CC(N)=O)NC(=O)[C@@H](C)NC1=O)C(=O)N[C@@H](CCC(=O)O)C(=O)N[C@@H](CC(=O)O)C(=O)N[C@@H](Cc1ccccc1)C(=O)N[C@@H](Cc1ccc(Br)cc1)C(=O)N[C@@H](CC(=O)O)C(=O)N[C@@H](C(C)(C)C)C(=O)N[C@H](C(N)=O)CSC3
B1 yielded a Kd in assay [1] of 0.8 nM.

B2: 17-69-07-N219, G-Sar10-A-(17-69-07) (non-stabilised with spacer) (peptide)
peptide: G[Sar][Sar][Sar][Sar][Sar][Sar][Sar][Sar][Sar][Sar]ACYNEFGCEDFYDIC-NH2
modifications: linker 13-19-26 via TBMB
On to B2, for which binding in assay [2] was characterised by a dissociation constant (Kd) of 0.9 nM.

B3: 17-69-07-N100, Ac-(17-69-07) tBuGly11 (peptide)
chain: Ac-CYNEFGCEDFYD[Tle]C-NH2
modifications: linker 1-7-14 via TBMB
Regarding B3, binding in assay [1] was put at a Kd of 1.56 nM.

B4: 17-69-07-N241, bAla-Sar10-A-(17-69-07) D-Ala1 1Nal4 D-Ala5 tBuGly11 (peptide)
peptide: [βAla][Sar][Sar][Sar][Sar][Sar][Sar][Sar][Sar][Sar][Sar]AC[dA]NE[1Nal][dA]CEDFYD[Tle]C-NH2
modifications: linker 13-19-26 via TBMB; N-terminus assumed
SMILES: C[C@H](NC(=O)CN(C)C(=O)CN(C)C(=O)CN(C)C(=O)CN(C)C(=O)CN(C)C(=O)CN(C)C(=O)CN(C)C(=O)CN(C)C(=O)CN(C)C(=O)CN(C)C(=O)CCN)C(=O)N[C@H]1CSCc2cc3cc(c2)CSC[C@H](NC(=O)[C@@H](C)NC(=O)[C@H](Cc2cccc4ccccc24)NC(=O)[C@H](CCC(=O)O)NC(=O)[C@H](CC(N)=O)NC(=O)[C@@H](C)NC1=O)C(=O)N[C@@H](CCC(=O)O)C(=O)N[C@@H](CC(=O)O)C(=O)N[C@@H](Cc1ccccc1)C(=O)N[C@@H](Cc1ccc(O)cc1)C(=O)N[C@@H](CC(=O)O)C(=O)N[C@@H](C(C)(C)C)C(=O)N[C@H](C(N)=O)CSC3
notes: also called βAla-Sar10-A-C(D-Ala)NE(1Nal)(D-Ala)CEDFYD(tBuGly)C
B4 came in with a Kd in assay [2] of 1.4 nM.

B5: 17-69-07-N248, DOTA-A-(17-69-07) D-Ala1 1Nal4 D-Ala5 4BrPhe9 tBuGly11 (peptide)
chain: {DOTA}-AC[dA]NE[1Nal][dA]CEDF[Phe(4-Br)]D[Tle]C-NH2
modifications: linker 2-8-15 via TBMB
SMILES: C[C@H](NC(=O)CN1CCN(CC(=O)O)CCN(CC(=O)O)CCN(CC(=O)O)CC1)C(=O)N[C@H]1CSCc2cc3cc(c2)CSC[C@H](NC(=O)[C@@H](C)NC(=O)[C@H](Cc2cccc4ccccc24)NC(=O)[C@H](CCC(=O)O)NC(=O)[C@H](CC(N)=O)NC(=O)[C@@H](C)NC1=O)C(=O)N[C@@H](CCC(=O)O)C(=O)N[C@@H](CC(=O)O)C(=O)N[C@@H](Cc1ccccc1)C(=O)N[C@@H](Cc1ccc(Br)cc1)C(=O)N[C@@H](CC(=O)O)C(=O)N[C@@H](C(C)(C)C)C(=O)N[C@H](C(N)=O)CSC3
B5 gave a Kd in assay [3] of 0.5 nM.

The record behind these values is patent US20200171161A1 (Bicycle, published 2020).
